In patent US20140234312A1 (Genentech, published 2014):

What was measured:
[1] = target: T1, hNrp2 (a1a2b1b2)-Fc fusion protein (human, UniProt O60462 23-595, limits assumed); assay: competition ELISA: antibody titrated on plate-coated NRP2-Fc (5 ug/ml), competitor biotinylated VEGF165, streptavidin-HRP; blocking of VEGF165 binding
T1 construct: domain: a1a2b1b2; Expressed in CHO cells; The SPR text says only 'human Nrp2 (a1a2b1b2)', so it is not certain that the Fc fusion was the analyte there; also called hNrp2 ECD; human Nrp2 ECD; not shown: Fc part of the fusion
T1 sequence (looked up): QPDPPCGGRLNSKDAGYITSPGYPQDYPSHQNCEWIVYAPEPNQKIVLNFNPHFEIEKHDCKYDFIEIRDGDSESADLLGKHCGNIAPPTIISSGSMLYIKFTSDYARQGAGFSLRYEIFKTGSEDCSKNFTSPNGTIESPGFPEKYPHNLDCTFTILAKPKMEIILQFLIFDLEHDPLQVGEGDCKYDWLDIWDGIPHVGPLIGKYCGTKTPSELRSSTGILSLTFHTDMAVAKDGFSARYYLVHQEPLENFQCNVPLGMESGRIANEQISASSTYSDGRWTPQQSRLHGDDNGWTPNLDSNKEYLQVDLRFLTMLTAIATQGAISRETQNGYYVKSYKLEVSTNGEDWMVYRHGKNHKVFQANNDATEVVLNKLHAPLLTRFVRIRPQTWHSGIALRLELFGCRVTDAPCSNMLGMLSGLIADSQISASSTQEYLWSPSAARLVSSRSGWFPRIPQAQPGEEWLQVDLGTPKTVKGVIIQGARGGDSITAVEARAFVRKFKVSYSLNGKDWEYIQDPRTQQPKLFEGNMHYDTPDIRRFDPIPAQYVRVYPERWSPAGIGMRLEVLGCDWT
Experimental: (§1) To evaluate blocking Nrp2 from binding VEGF, three-fold serial dilutions of anti-Nrp2^B IgGs were first incubated with 96-well Maxisorp plate coated NRP2-Fc (5 μg/ml) in PBST buffer for 2 hr, following by adding biotinylated VEGF₁₆₅ or VEGFC (full length) for 15 minutes. The amount of biotinylated VEGF binding to Nrp2 was detected by streptavidin-HRP conjugates.

mNrp2 (a1a2b1b2)-His = target: T2, mNrp2 (a1a2b1b2)-His (mouse, UniProt O35375 23-595, limits assumed); assay: SPR (BIAcore-3000), human IgG1 captured on anti-human IgG CM5 chip, mouse Nrp2 (a1a2b1b2) injected 0.5-250 nM, 25 C, 1:1 Langmuir; murine Nrp2
T2 construct: domain: a1a2b1b2; Expressed in CHO cells; also called mouse Nrp2 (a1a2b1b2); murine Nrp2; not shown: His tag
T2 sequence (looked up): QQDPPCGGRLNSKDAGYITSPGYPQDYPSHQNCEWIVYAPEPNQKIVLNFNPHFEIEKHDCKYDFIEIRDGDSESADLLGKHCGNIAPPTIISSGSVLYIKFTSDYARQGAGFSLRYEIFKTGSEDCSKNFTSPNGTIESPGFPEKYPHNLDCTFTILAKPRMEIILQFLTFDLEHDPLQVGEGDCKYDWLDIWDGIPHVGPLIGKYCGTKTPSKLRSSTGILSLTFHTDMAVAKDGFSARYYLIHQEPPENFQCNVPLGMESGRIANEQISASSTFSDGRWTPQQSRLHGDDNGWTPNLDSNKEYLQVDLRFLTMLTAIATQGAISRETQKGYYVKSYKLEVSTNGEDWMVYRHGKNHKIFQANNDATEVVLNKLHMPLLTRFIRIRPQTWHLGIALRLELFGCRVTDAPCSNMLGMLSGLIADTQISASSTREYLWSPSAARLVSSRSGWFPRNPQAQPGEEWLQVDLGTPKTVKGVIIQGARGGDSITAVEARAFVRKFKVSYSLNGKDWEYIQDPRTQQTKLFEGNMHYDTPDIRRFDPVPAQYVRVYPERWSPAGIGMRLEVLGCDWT
Experimental: (§2) To determine binding affinities of anti-Nrp2^B IgG1 antibodies, surface plasmon resonance (SRP) measurement with a BIAcore™-3000 instrument was used. First of all, anti-Nrp2^B human IgGs were captured by CM5 biosensor chips coated rabbit anti-human IgG to achieve approximately 200 response units (RU). For kinetics measurements, two-fold serial dilutions of mouse or human Nrp2 (a1a2b1b2) (0.5 nM to 250 nM) were injected separately in PBT buffer (PBS with 0.05% (v/v) Tween 20) at 25° C. with a flow rate of 30 μl/min. Association rates (kₒₙ) and dissociation rates (koff) were calculated using a simple one-to-one Langmuir binding model (BIAcore Evaluation Software version 3.2). The equilibrium dissociation constant (KD) was calculated as the ratio koff/kₒₙ.

[2] = target: T1, hNrp2 (a1a2b1b2)-Fc fusion protein; assay: ELISA on antigen-coated plate, Anti-Nrp2^B IgG titrated, anti-human HRP detection, OD450
Experimental: (§3) For ELISA-based binding specificity tests, three-fold serial dilutions of Anti-Nrp2^B IgGs (0.002 nM to 500 nM) in PBST buffer (PBT buffer with 0.5% (w/v) BSA) were incubated with 1 μg/ml antigen-coated 96-well Maxisorp plates for at least 1 hr, and the plates were washed with PBT buffer. Bound antibodies were detected with anti-human antibody HRP conjugates diluted 1:2500 in PBST buffer, developed with TMB substrate for approximately 5 minutes, quenched with 1M H₃PO₄, and read spectrophotometrically at 450 nm.

hNrp1 ECD = target: T3, hNrp1 ECD (human, UniProt O14786 22-856); assay: as above
T3 construct: extracellular domain
T3 sequence (looked up): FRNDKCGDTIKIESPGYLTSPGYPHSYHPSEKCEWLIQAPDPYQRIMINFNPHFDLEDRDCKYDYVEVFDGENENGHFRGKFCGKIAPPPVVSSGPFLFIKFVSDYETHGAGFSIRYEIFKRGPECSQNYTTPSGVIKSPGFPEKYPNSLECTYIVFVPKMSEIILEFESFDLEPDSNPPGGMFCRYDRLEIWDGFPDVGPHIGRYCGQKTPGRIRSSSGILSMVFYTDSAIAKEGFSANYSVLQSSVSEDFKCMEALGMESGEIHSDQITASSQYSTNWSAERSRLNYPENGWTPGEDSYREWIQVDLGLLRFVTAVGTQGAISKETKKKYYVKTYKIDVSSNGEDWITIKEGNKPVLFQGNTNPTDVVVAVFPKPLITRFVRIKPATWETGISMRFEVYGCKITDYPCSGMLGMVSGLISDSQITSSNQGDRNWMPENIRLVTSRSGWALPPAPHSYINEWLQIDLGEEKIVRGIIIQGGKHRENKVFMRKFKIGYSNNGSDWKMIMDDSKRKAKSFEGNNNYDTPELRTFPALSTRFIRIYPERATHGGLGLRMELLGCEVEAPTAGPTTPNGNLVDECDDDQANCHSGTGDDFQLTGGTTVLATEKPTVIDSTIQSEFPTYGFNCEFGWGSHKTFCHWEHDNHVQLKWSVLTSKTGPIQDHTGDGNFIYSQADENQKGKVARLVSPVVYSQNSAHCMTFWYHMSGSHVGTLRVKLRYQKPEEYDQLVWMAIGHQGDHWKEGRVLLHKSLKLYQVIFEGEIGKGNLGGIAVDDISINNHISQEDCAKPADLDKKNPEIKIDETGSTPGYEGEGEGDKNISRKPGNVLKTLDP
Experimental: as §3

hNrp2 (b1b2) = target: T4, hNrp2 (b1b2) (human, UniProt O60462 275-595, limits assumed); assay: as above
T4 construct: domain: b1b2; Expressed in insect cells; also called B1-B2 domains of hNrp2; b1-b2 domains of human Nrp2
T4 sequence (looked up): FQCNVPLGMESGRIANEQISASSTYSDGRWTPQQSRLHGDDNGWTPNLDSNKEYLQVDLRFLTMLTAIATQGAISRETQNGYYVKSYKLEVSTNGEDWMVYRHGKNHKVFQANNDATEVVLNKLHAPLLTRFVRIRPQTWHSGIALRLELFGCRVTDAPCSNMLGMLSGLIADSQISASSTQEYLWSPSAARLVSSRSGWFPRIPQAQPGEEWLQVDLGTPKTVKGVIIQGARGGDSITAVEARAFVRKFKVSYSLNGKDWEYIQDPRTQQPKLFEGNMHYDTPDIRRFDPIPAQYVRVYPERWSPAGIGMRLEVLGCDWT
Experimental: as §3

A1-A2 domains of hNrp2 = target: T5, A1-A2 domains of hNrp2 (human, UniProt O60462 23-270, limits assumed); assay: as above
T5 construct: domain: A1-A2; also called CUB (a1-a2) domains of human Nrp2
T5 sequence (looked up): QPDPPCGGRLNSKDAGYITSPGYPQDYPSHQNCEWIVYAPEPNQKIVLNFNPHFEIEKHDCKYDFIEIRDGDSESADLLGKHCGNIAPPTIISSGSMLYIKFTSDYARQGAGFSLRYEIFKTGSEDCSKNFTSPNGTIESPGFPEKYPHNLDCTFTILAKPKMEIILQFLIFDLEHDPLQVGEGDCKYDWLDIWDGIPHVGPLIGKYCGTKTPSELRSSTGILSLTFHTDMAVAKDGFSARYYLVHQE
Experimental: as §3

[3] = target: T1, hNrp2 (a1a2b1b2)-Fc fusion protein; assay: SPR (BIAcore-3000), human IgG1 captured on anti-human IgG CM5 chip, human Nrp2 (a1a2b1b2) injected 0.5-250 nM, 25 C, 1:1 Langmuir; human Nrp2
Experimental: as §2

[4] = target: T1, hNrp2 (a1a2b1b2)-Fc fusion protein; assay: blocking ELISA: plate coated with human Nrp2 ECD (5 ug/ml), antibody pre-incubated, then biotinylated human VEGFC (1 nM), streptavidin-HRP; blocked ligand VEGFC
Experimental: FIG. 1. Characterization of Anti-Nrp2^B mAb. (A) Schematic representation of Sema and VEGF binding regions on Nrp2 relative to Anti-Nrp2^B epitope regions. […] (C) Blocking of VEGFC binding to Nrp2 by Anti-Nrp2^B. Increasing amounts of mAb was pre-incubated with plates coated with human Nrp2 ECD (5 μg/ml) for 1-2 hrs, followed by adding pre-titrated biotinylated human VEGFC (1 nM) for 15 min. The percentage of bound VEGFC was detected by streptavidin-HRP conjugates. (D) Blocking of VEGF₁₆₅ binding to Nrp2 by Anti-Nrp2^B. (E) Blocking of Sema3F binding to LECs. LEC were incubated with conditioned media containing Sema3F fused to alkaline phosphatase (AP) (REF), in the presence or absence of Anti-Nrp2^B. AP activity derived form bound Sema3F-AP was detected colorimetrically with same development times. […] Nrp2 ECD was used as a positive control for blocking binding (right panel). Scale bar
as §1

B1: anti-Nrp2^B antibody YW68.4.2.36 (antibody, V domains shown)
VH: EVQLVESGGGLVQPGGSLRLSCAASGFTITSSGIHWVRQAPGKGLEWVARITPYDGSTDYADSVKGRFTISADTSKNTAYLQMNSLRAEDTAVYYCARYRGRLLFDYWGQGTLVTVSS
VL: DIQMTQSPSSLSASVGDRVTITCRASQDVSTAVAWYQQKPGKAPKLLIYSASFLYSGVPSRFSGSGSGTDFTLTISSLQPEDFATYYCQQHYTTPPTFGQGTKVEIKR
notes: Phage-derived human synthetic antibody; Human IgG1 was used in SPR and ELISA; also called Anti-Nrp2^B mAb; anti-Nrp2^B IgG1
IC50 [1]: 100 pM
Kd (mNrp2 (a1a2b1b2)-His): 4900 pM
EC50 (read off the curve) [2]: ~200 pM
binding result (hNrp1 ECD): no binding (tested: 500 nM)
EC50 (read off the curve) (hNrp2 (b1b2)): ~300 pM
binding result (A1-A2 domains of hNrp2): no binding (tested: 500 nM)
Kd [3]: 5300 pM
IC50 (read off the curve) [4]: ~100 pM
